We go through 50 sequences from the supplement of paper PMC9112550, “Optimization of the antimicrobial peptide Bac7 by deep mutational scanning” (BMC Biology, 2022).

The subject of this data set is Escherichia coli TOP10. The data set can be described thus: shrunken log2 fold change of peptide-encoding DNA abundance (4.5 h post-induction vs induction); higher = less antimicrobial activity (less host growth inhibition). To be noted: time post-induction: 4.5 h; library: site-saturation at positions 5, 18, 19, 20.
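Also: peptides expressed intracellularly from a pBAD plasmid library in pooled LB shake-flask culture, induced with 0.3% L-arabinose, DNA abundance read by NGS, three biological replicates, DESeq2 with apeglm shrinkage.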

For RRIRARPPRLPRPRPRPCAAPRP, the “shrunken log2 fold change” value came out at 0.893.

For the sequence RRIRWRPPRLPRPRPRPWVEPRP, the “shrunken log2 fold change” value came to 0.0386.

As to RRIRCRPPRLPRPRPRPTLSPRP, the “shrunken log2 fold change” value is -0.0995.

For the sequence RRIRVRPPRLPRPRPRPMRIPRP, the “shrunken log2 fold change” value was 0.218.

Regarding RRIRKRPPRLPRPRPRPAMLPRP, the “shrunken log2 fold change” value was found to be 0.292.

Take RRIRLRPPRLPRPRPRPCYMPRP: the “shrunken log2 fold change” value was -0.308.

For RRIRMRPPRLPRPRPRPPPRPRP, the “shrunken log2 fold change” value was 2.36.

On to RRIRMRPPRLPRPRPRPYYRPRP, for which the “shrunken log2 fold change” value came out at 0.0143.

For RRIRGRPPRLPRPRPRPKTAPRP, the “shrunken log2 fold change” value worked out at 0.808.

On to RRIRQRPPRLPRPRPRPLHHPRP, for which the “shrunken log2 fold change” value was -0.73.

Turning to RRIRIRPPRLPRPRPRPCWQPRP, the “shrunken log2 fold change” value is -0.211.

With RRIRGRPPRLPRPRPRPRMGPRP, the “shrunken log2 fold change” value turned out to be 0.868.

Regarding RRIRFRPPRLPRPRPRPEGTPRP, the “shrunken log2 fold change” value was 0.055.

As for RRIRRRPPRLPRPRPRPRRNPRP, the “shrunken log2 fold change” value came out at 0.223.

Consider RRIRNRPPRLPRPRPRPNGEPRP, for which the “shrunken log2 fold change” value is 0.0257.

Turning to RRIRTRPPRLPRPRPRPFFGPRP, the “shrunken log2 fold change” value stood at 0.0239.

For the sequence RRIRDRPPRLPRPRPRPTMDPRP, the “shrunken log2 fold change” value was -0.0444.

On to RRIRFRPPRLPRPRPRPALGPRP, for which the “shrunken log2 fold change” value came to 0.423.

Regarding RRIRMRPPRLPRPRPRPHHVPRP, the “shrunken log2 fold change” value was -0.143.

Consider RRIRNRPPRLPRPRPRPSAWPRP, for which the “shrunken log2 fold change” value was -0.135.

For RRIRARPPRLPRPRPRPCHVPRP, the “shrunken log2 fold change” value was -0.0999.

In the case of RRIRWRPPRLPRPRPRPEVCPRP, the “shrunken log2 fold change” value is 0.000572.

Turning to RRIRFRPPRLPRPRPRPHRRPRP, the “shrunken log2 fold change” value came to 0.189.

In the case of RRIRCRPPRLPRPRPRPQALPRP, the “shrunken log2 fold change” value was found to be 0.0319.

For RRIRTRPPRLPRPRPRPSLRPRP, the “shrunken log2 fold change” value was -0.294.

Consider RRIRWRPPRLPRPRPRPFCKPRP, for which the “shrunken log2 fold change” value is -0.13.

On to RRIRERPPRLPRPRPRPLYFPRP, for which the “shrunken log2 fold change” value was -0.764.

Consider RRIRPRPPRLPRPRPRPHELPRP, for which the “shrunken log2 fold change” value is -0.0456.

For the sequence RRIRARPPRLPRPRPRPGIRPRP, the “shrunken log2 fold change” value is 0.475.

Turning to RRIRCRPPRLPRPRPRPSIRPRP, the “shrunken log2 fold change” value was -0.608.

Consider RRIRERPPRLPRPRPRPTYNPRP, for which the “shrunken log2 fold change” value is -0.908.

Regarding RRIRARPPRLPRPRPRPADMPRP, the “shrunken log2 fold change” value was found to be 0.194.

With RRIRGRPPRLPRPRPRPEKVPRP, the “shrunken log2 fold change” value stood at 0.417.

As for RRIRIRPPRLPRPRPRPCNGPRP, the “shrunken log2 fold change” value is -0.0882.

As to RRIRKRPPRLPRPRPRPIDDPRP, the “shrunken log2 fold change” value worked out at 0.0889.

With RRIRHRPPRLPRPRPRPNCGPRP, the “shrunken log2 fold change” value came to 0.00696.

As for RRIRDRPPRLPRPRPRPESLPRP, the “shrunken log2 fold change” value was found to be 1.01.

With RRIRWRPPRLPRPRPRPETCPRP, the “shrunken log2 fold change” value was 0.16.

On to RRIRVRPPRLPRPRPRPRKNPRP, for which the “shrunken log2 fold change” value is 0.0784.

As to RRIRERPPRLPRPRPRPMHIPRP, the “shrunken log2 fold change” value was -0.185.

In the case of RRIRNRPPRLPRPRPRPHYNPRP, the “shrunken log2 fold change” value is -0.619.

Regarding RRIRCRPPRLPRPRPRPRIPPRP, the “shrunken log2 fold change” value was -0.00295.

On to RRIRERPPRLPRPRPRPTMQPRP, for which the “shrunken log2 fold change” value amounted to 0.0612.

As for RRIRFRPPRLPRPRPRPWHHPRP, the “shrunken log2 fold change” value was -0.325.

Regarding RRIRSRPPRLPRPRPRPWTCPRP, the “shrunken log2 fold change” value was determined as 0.00516.

With RRIRERPPRLPRPRPRPNVNPRP, the “shrunken log2 fold change” value is -0.34.

In the case of RRIRDRPPRLPRPRPRPSTVPRP, the “shrunken log2 fold change” value was 0.154.

Regarding RRIRTRPPRLPRPRPRPQHKPRP, the “shrunken log2 fold change” value is -0.0821.

Take RRIRVRPPRLPRPRPRPIIMPRP: the “shrunken log2 fold change” value was 0.0741.

In the case of RRIRFRPPRLPRPRPRPCQMPRP, the “shrunken log2 fold change” value is -0.981.
